# From patent US20250270343A1 (Alector, published 2025)
# T1: soluble mouse GPNMB-Fc polypeptide (Fc of human IgG1 or mouse IgG2A, not specified for the assay) (mouse, UniProt Q99P91 23-502)
# T1 construct: extracellular domain; also called moGPNMB-Fc; mGPNMB; not shown: Fc region of human IgG1 or mouse IgG2A; in the Fab2 assay detected with anti-human IgG1 secondary antibody
# T1 sequence (looked up): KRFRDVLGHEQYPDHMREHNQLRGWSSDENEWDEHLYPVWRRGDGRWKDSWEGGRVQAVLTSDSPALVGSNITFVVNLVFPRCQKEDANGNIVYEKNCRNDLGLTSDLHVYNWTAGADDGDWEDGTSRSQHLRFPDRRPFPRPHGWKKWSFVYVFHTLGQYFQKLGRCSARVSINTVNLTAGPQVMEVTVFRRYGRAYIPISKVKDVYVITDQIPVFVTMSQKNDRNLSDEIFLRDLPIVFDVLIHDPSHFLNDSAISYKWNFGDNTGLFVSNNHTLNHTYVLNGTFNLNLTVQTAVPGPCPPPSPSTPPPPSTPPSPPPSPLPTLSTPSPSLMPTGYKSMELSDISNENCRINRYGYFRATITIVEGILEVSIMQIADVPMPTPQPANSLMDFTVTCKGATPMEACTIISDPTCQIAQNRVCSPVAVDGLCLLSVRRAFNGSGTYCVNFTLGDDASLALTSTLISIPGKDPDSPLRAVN
# T2: full-length untagged human GPNMB expressed on cells (human, UniProt Q14956 23-572)
# T2 sequence: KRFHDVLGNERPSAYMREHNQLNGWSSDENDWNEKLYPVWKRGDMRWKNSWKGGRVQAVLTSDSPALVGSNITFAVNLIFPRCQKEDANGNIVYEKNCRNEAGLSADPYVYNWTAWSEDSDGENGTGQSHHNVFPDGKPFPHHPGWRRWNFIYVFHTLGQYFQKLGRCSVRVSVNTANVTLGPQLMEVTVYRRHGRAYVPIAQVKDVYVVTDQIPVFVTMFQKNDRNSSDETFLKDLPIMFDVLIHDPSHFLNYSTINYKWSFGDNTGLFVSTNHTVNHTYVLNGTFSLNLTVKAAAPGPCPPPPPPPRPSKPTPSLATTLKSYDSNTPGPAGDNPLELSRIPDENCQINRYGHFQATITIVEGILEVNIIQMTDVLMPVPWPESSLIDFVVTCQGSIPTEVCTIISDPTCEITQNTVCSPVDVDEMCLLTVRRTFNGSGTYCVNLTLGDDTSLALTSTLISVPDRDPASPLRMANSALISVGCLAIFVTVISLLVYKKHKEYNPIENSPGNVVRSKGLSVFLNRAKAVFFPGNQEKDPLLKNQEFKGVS
# T3: soluble mouse GPNMB (recombinant extracellular domain) (mouse, UniProt Q99P91 23-502)
# T3 construct: also called moGPNMB; not shown: C-terminal polyhistidine or Avi-His tag
# T3 sequence: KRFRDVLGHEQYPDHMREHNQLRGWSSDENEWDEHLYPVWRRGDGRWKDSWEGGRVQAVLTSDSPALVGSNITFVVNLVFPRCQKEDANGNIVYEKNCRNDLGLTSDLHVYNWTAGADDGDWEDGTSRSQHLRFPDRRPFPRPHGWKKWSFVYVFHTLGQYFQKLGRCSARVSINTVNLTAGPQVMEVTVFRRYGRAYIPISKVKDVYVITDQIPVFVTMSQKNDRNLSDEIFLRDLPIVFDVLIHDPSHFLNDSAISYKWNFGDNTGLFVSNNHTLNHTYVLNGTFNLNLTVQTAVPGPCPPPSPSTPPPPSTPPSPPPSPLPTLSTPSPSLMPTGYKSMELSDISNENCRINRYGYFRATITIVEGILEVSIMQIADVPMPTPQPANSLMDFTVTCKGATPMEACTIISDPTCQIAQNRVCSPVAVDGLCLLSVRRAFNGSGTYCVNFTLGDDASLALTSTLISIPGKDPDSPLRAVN
# T4: soluble cynomolgus GPNMB (recombinant extracellular domain) (cynomolgus, UniProt Q14956 23-499 (human entry), limits assumed)
# T4 chain: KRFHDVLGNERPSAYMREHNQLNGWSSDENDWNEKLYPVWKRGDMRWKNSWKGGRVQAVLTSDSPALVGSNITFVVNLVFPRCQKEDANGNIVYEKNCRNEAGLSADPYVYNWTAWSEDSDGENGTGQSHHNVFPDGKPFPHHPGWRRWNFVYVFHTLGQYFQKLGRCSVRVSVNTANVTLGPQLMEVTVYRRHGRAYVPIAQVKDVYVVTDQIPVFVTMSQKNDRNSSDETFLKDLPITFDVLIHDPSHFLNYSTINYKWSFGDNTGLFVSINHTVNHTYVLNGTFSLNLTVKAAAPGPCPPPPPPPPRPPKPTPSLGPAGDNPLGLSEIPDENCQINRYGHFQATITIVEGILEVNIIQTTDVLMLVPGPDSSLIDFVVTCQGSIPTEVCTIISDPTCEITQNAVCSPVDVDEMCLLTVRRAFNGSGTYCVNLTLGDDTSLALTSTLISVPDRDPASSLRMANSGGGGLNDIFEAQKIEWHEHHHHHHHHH
# T5: soluble human GPNMB (recombinant extracellular domain) (human, UniProt Q14956 23-498)
# T5 construct: also called huGPNMB; recombinant human GPNMB extracellular domain; not shown: C-terminal polyhistidine or Avi-His tag
# T5 sequence: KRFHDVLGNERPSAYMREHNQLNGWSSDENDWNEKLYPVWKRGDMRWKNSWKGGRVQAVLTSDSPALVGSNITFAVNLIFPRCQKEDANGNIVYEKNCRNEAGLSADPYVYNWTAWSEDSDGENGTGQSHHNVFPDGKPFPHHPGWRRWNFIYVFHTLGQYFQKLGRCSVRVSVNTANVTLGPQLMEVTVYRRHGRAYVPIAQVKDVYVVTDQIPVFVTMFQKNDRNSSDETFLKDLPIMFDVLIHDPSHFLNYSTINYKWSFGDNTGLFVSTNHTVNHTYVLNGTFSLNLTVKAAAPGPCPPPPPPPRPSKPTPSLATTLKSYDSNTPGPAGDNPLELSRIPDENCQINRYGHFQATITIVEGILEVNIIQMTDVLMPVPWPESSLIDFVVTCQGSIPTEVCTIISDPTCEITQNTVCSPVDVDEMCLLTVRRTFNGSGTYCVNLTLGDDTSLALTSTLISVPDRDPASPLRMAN
# B1: recombinant Fab2 fragment of anti-GPNMB antibody GPN-52 (other)
# VH: DVQLQESGPGLVKPSQTVFLTCTVTGISITTGNYRWSWIRQFPGNKLEWIGYIYYSGTITYNPSLTSRITITRDTPKNEFFLEMNSLTAEDTATYYCARDLTHWYFDVWGTGTTVTVSS
# VL: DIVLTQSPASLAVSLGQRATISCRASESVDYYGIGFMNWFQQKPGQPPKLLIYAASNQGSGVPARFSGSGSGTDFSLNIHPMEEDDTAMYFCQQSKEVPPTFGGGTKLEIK
# notes: also called GPN-52 Fab2
# B2: recombinant Fab2 fragment of anti-GPNMB antibody GPN-43 (other)
# VH: EVQLQQSGPELVKPGASVKISCKASGYTFTDYYMNWVRQSHGKSLEWIGDINPYHGGSTYNQKIKVKATLTVDKSSSTAYMELRSLTSEDSAVYYCARNWPYFDYWGQGTTLTVSS
# VL: DIQMTQSPASLSASVGETVTITCRASENIYSFLVWYQQKQGKSPQLLVYNAKTLAEGVPSRFSGSGSGTQFSLKISSLQPEDFGSYYCQHHFGTPPYTFGGGTKLEIK
# notes: also called GPN-43 Fab2
# B3: anti-GPNMB antibody GPN-96 (antibody, V domains shown)
# VH: QVQLVQSGAEVKKPGASVKVSCKASGYTFTSYWMHWVRQAPGQGLEWMGEINPYDQRTNYAQKFQGRVTMTVDKSTSTVYMELSSLRSEDTAVYYCARSTGNYAWFAYWGQGTLVTVSS
# VL: DIVMTQSPDSLAVSLGERATINCKASQDVSPSLAWYQQKPGQPPKLLIYRASYRYTGVPDRFSGSGSGTDFTLTISSLQAEDVAVYYCQQHYSIPLTFGGGTKVEIK
# B4: anti-GPNMB antibody GPN-97 (antibody, V domains shown)
# VH: QVQLVQSGAEVKKPGASVKVSCKASGYTFTSYWMHWVRQAPGQGLEWMGEINPYDQRTNYAQKFQGRVTMTVDKSTSTVYMELSSLRSEDTAVYYCARSTGNYAWFAYWGQGTLVTVSS
# VL: DIVMTQSPDSLAVSLGERATINCKTSQDVSPSLAWYQQKPGQPPKLLIYSGSYRYTGVPDRFSGSGSGTDFTLTISSLQAEDVAVYYCQQHYSIPLTFGGGTKVEIK
# B5: anti-GPNMB antibody GPN-98 (antibody, V domains shown)
# VH: QVQLVQSGAEVKKPGASVKVSCKASGYTFTSYWMHWVRQAPGQGLEWMGEINPYDQRTNYAQKFQGRVTMTVDKSTSTVYMELSSLRSEDTAVYYCARSTGNYAWFAYWGQGTLVTVSS
# VL: DIVMTQSPDSLAVSLGERATINCKASQDVSPSLAWYQQKPGQPPKLLIYSASYRYTGVPDRFSGSGSGTDFTLTISSLQAEDVAVYYCQQHYSIPLTFGGGTKVEIK
# Legend:
# [1] = biological target: T1, soluble mouse GPNMB-Fc polypeptide (Fc …); assay: FACS, Fab2 blocking moGPNMB-Fc binding to SVEC4-10 cells
# Protocol: Purified recombinant Fab2 fragments of select anti-GPNMB antibodies of the present disclosure were produced through transient transfection and purified. Briefly, 2 ug/mL soluble mouse or human GPNMB-Fc diluted in binding buffer was pre-complexed with increasing concentrations of anti-GPNMB Fab2 fragments in 96-well plates. Subsequently, 100,000 SVEC4-10 cells were added per well and incubated on ice for 30 minutes. Soluble moGPNMB-Fc or huGPNMB-Fc bound to cell surface was detected with fluorescent anti-human IgG1 secondary antibody and measured on FACSCanto. IC50 and EC50 values based on changes in MFI values were calculated for each antibody.
# [2] = biological target: T2, full-length untagged human GPNMB …; assay: cell-based or functional assay
# [3] = biological target: T2, full-length untagged human GPNMB …; assay: FACS titration, FS293-huGPNMB+ cells
# Protocol: Affinity matured anti-GPNMB antibodies of the present disclosure were examined to determine their ability to bind human and mouse GPNMB expressed on FS293-huGPNMB+ or B16F10 cells, respectively. Cell-based affinity measurements were performed to ascertain the apparent affinities of anti-GPNMB antibodies to cell-surface expressed GPNMB. Serial dilutions of anti-GPNMB antibodies of the present disclosure were added to 100,000 FS293-huGPNMB+ or B16F10 cells and allowed to achieve binding equilibrium at 4° C. After addition of fluorescently labeled secondary antibody and brief washing steps, MFI values as a function of titrated antibody concentration were recorded via FACS analysis. Equilibrium binding curves were fit using nonlinear regression analysis with Graphpad Prism 6 software.
# [4] = biological target: T3, soluble mouse GPNMB (recombinant …); assay: SPR Biacore T200, IgG captured on Protein A/G; nb = no binding observed
# [5] = biological target: T4, soluble cynomolgus GPNMB (recombinant …); assay: SPR Biacore, IgG captured
# Protocol: (§1) Binding kinetics of the humanized and affinity matured anti-GPNMB antibodies described above were evaluated using the Biacore T200 (Cytiva). Briefly, IgGs were diluted to 10 μg/mL and captured using a Protein A/G (ThermioFisher, #21186) surface on a CM5 chip that was prepared by amine coupling according to the instrument manufacturer's recommendations. The captured antibodies were tested for their ability to bind human, cynomolgus monkey, and mouse GPNMB recombinant proteins as follows.
# (§2) Human, cynomolgus, and mouse GPNMB analytes were diluted in running buffer (HBS-EP+, Teknova, #8022, with 0.5 mg/ml BSA, MP Biomedicals LLC, #820451), to a concentration of 300 nM, then diluted 3-fold serially to 100 nM, 33 nM, and 11 nM. Each sample was injected for 2 minutes to allow association, followed by dissociation in buffer alone for 10 minutes. Each sample injection was followed by the regeneration of the chip with three 30-second injections of 10 mM glycine, pH 1.7. Fresh antibody was captured at the beginning of each cycle.
# (§3) Data were analyzed using Biacore evaluation software to generate kinetic constants. The equilibrium dissociation constants (KD) were calculated from the fitted association and dissociation rate constants (k-on and k-off) for each of the anti-GPNMB antibodies.
# [6] = biological target: T5, soluble human GPNMB (recombinant …); assay: SPR Biacore, IgG captured
# Protocol: as §1, §2, §3
# [7] = biological target: T2, full-length untagged human GPNMB …; assay: cell-based or functional assay; remark: listed apart in the source
# [8] = biological target: T2, full-length untagged human GPNMB …; assay: cell-based or functional assay; remark: listed apart in the source
Binder,IC50 [1] [nM],Inflammasome: Fold Decrease IL-1β (max response at 0.3 µg/ml) [2] [fold],EC50 [3] [nM],binding result [4],Kd [5] [nM],koff [5] [s⁻¹],kon [5] [M⁻¹ s⁻¹],Kd [6] [nM],koff [6] [s⁻¹],kon [6] [M⁻¹ s⁻¹],EC50 GCase [7] [nM],Fold Increase GCase (max response at 1 µg/ml) [7] [fold],EC50 PDL1 [8] [nM],Fold Increase CD40 (max response at 1 µg/ml) [8] [fold],Fold Increase PDL1 (max response at 1 µg/ml) [8] [fold]
B1,3.19,–,–,–,–,–,–,–,–,–,–,–,–,–,–
B2,9.42,–,–,–,–,–,–,–,–,–,–,–,–,–,–
B3,–,0.525,0.652,no binding (tested: 300 nM highest analyte concentration),3.2,0.00025,77000,2.5,0.0002,78000,0.23,1.31,0.58,1.72,1.9
B4,–,0.476,0.546,no binding (tested: 300 nM highest analyte concentration),8.2,0.00065,79000,6.7,0.00054,81000,0.22,1.36,0.75,1.73,2.05
B5,–,0.664,0.407,no binding (tested: 300 nM highest analyte concentration),14.6,0.0011,74000,11.9,0.00091,76000,0.25,1.39,1.24,1.71,1.97
